Literature values as cited in article PMC3134397.

Experiments:
[1] = molecular target: RAE-1δ (Mus musculus) (UniProt Q9JI58); test: AUC
[2] = molecular target: RAE-1β (Mus musculus) (UniProt O08603); test: AUC
[3] = molecular target: RAE-1γ (Mus musculus) (UniProt O08604); test: AUC
[4] = molecular target: UL18 (Human betaherpesvirus 5) (UniProt P08560); test: SPR

Chain of UniProt O08603 (O08603 29-229): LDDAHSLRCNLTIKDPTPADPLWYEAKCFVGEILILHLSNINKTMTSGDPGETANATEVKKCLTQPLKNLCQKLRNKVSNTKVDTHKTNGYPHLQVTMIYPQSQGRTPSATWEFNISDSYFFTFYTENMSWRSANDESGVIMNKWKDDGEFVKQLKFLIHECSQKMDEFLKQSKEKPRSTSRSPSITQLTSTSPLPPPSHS
Chain of UniProt Q9JI58 (Q9JI58 29-225, stated change not applied): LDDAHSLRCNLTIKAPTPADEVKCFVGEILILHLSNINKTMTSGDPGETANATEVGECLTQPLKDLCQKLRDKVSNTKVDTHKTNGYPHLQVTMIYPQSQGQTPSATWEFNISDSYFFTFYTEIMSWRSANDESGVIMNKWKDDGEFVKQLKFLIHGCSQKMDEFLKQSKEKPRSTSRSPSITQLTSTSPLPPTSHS
Chain of UniProt O08604 (O08604 29-227): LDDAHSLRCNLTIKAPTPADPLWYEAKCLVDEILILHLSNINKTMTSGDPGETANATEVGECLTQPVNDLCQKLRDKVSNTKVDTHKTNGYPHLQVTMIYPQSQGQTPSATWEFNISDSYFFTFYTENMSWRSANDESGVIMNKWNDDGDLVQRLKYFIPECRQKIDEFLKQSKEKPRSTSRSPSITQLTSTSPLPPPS

Substance	Kd [1] [nM]	Kd [2] [nM]	Kd [3] [nM]	Kd [4] [nM]
m152 (from UniProt Q83156)	30000	3000	1000	
LIR1 (from UniProt Q8NHL6)				10
